Reference: publication PMC10939263

B1: SRC kinase associated phosphoprotein 1 (SKAP1), wild type, N2-fused [human] / FRK, N1-fused [not stated] (parent)
chain 1: MQAAALPEEIRWLLEDAEEFLAEGLRNENLSAVARDHRDHILRGFQQIKARYYWDFQPQGGDIGQDSSDDNHSGTLGLSLTSDAPFLSDYQDEGMEDIVKGAQELDNVIKQGYLEKKSKDHSFFGSEWQKRWCVVSRGLFYYYANEKSKQPKGTFLIKGYGVRMAPHLRRDSKKESCFELTSQDRRSYEFTATSPAEARDWVDQISFLLKDLSSLTIPYEEDEEEEEKEETYDDIDGFDSPSCGSQCRPTILPGSVGIKEPTEEKEEEDIYEVLPDEEHDLEEDESGTRRKGVDYASYYQGLWDCHGDQPDELSFQRGDLIRILSKEYNMYGWWVGELNSLVGIVPKEYLTTAFEVEER
chain 2: MSNICQRLWEYLEPYLPCLSTEADKSTVIENPGALCSPQSQRHGHYFVALFDYQARTAEDLSFRAGDKLQVLDTLHEGWWFARHLEKRRDGSSQQLQGYIPSNYVAEDRSLQAEPWFFGAIGRSDAEKQLLYSENKTGSFLIRESESQKGEFSLSVLDGAVVKHYRIKRLDEGGFFLTRRRIFSTLNEFVSHYTKTSDGLCVKLGKPCLKIQVPAPFDLSYKTVDQWEIDRNSIQLLKRLGSGQFGEVWEGLWNNTTPVAVKTLKPGSMDPNDFLREAQIMKNLRHPKLIQLYAVCTLEDPIYIITELMRHGSLQEYLQNDTGSKIHLTQQVDMAAQVASGMAYLESRNYIHRDLAARNVLVGEHNIYKVADFGLARVFKVDNEDIYESRHEIKLPVKWTAPEAIRSNKFSIKSDVWSFGILLYEIITYGKMPYSGMTGAQVIQMLAQNYRLPQPSNCPQQFYNIMLECWNAEPKERPTFETLRWKLEDYFETDSSYSDANNFIR
B2: SRC kinase associated phosphoprotein 1 (SKAP1), wild type, N2-fused [human] / SRMS, N1-fused [not stated] (parent)
chain 1: B1 chain 1
chain 2: MEPFLRRRLAFLSFFWDKIWPAGGEPDHGTPGSLDPNTDPVPTLPAEPCSPFPQLFLALYDFTARCGGELSVRRGDRLCALEEGGGYIFARRLSGQPSAGLVPITHVAKASPETLSDQPWYFSGVSRTQAQQLLLSPPNEPGAFLIRPSESSLGGYSLSVRAQAKVCHYRVSMAADGSLYLQKGRLFPGLEELLTYYKANWKLIQNPLLQPCMPQKAPRQDVWERPHSEFALGRKLGEGYFGEVWEGLWLGSLPVAIKVIKSANMKLTDLAKEIQTLKGLRHERLIRLHAVCSGGEPVYIVTELMRKGNLQAFLGTPEGRALRLPPLLGFACQVAEGMSYLEEQRVVHRDLAARNVLVDDGLACKVADFGLARLLKDDIYSPSSSSKIPVKWTAPEAANYRVFSQKSDVWSFGVLLHEVFTYGQCPYEGMTNHETLQQIMRGYRLPRPAACPAEVYVLMLECWRSSPEERPSFATLREKLHAIHRCHP
B3: SRC kinase associated phosphoprotein 1 (SKAP1), wild type, N2-fused [human] / LYN, N1-fused [not stated] (parent)
chain 1: B1 chain 1
chain 2: MGCIKSKGKDSLSDDGVDLKTQPVRNTERTIYVRDPTSNKQQRPVPESQLLPGQRFQTKDPEEQGDIVVALYPYDGIHPDDLSFKKGEKMKVLEEHGEWWKAKSLLTKKEGFIPSNYVAKLNTLETEEWFFKDITRKDAERQLLAPGNSAGAFLIRESETLKGSFSLSVRDFDPVHGDVIKHYKIRSLDNGGYYISPRITFPCISDMIKHYQKQADGLCRRLEKACISPKPQKPWDKDAWEIPRESIKLVKRLGAGQFGEVWMGYYNNSTKVAVKTLKPGTMSVQAFLEEANLMKTLQHDKLVRLYAVVTREEPIYIITEYMAKGSLLDFLKSDEGGKVLLPKLIDFSAQIAEGMAYIERKNYIHRDLRAANVLVSESLMCKIADFGLARVIEDNEYTAREGAKFPIKWTAPEAINFGCFTIKSDVWSFGILLYEIVTYGKIPYPGRTNADVMTALSQGYRMPRVENCPDELYDIMKMCWKEKAEERPTFDYLQSVLDDFYTATEGQYQQQP

Variants of: B1
Test: luciferase complementation assay (normalized luciferase ratio, NLR)
Conditions: with FRK, HEK293T cells, one experiment, read off a plot

ratio to parent | Variant
1 | chain 1 MQAAALPEEIRWLLEDAEEFLAEGLRNENLSAVARDHRDHILRGFQQIKARYYWDFQPQGGDIGQDSSDDNHSGTLGLSLTSDAPFLSDYQDEGMEDIVKGAQELDNVIKQGYLEKKSKKHSFFGSEWQKRWCVVSRGLFYYYANEKSKQPKGTFLIKGYGVRMAPHLRRDSKKESCFELTSQDRRSYEFTATSPAEARDWVDQISFLLKDLSSLTIPYEEDEEEEEKEETYDDIDGFDSPSCGSQCRPTILPGSVGIKEPTEEKEEEDIYEVLPDEEHDLEEDESGTRRKGVDYASYYQGLWDCHGDQPDELSFQRGDLIRILSKEYNMYGWWVGELNSLVGIVPKEYLTTAFEVEER [chain 1 D120K]
0.84 | chain 1 MQAAALPEEIRWLLEDAEEFLAEGLRNENLSAVARDHRDHILRGFQQIKARYYWDFQPQGGDIGQDSSDDNHSGTLGLSLTSDAPFLSDYQDEGMEDIVKGAQELDNVIKQGYLEKKSKDHSFFGSEWQKRWCVVSRGLFYYYANEKSKQPKGTFLIKGYGVRMAPHLRRDSKKESCFELTSQDRRSYEFTATSPAEARDWVDQISFLLKDLSSLTIPYEEDEEEEEKEETYDDIDGFDSPSCGSQCRPTILPGSVGIKEPTEEKEEEDIYEVLPDEEHDLEEDESGTRRKGVDYASYYQGLWDCHGDQPDELSFQRGDLIRILSKEYNMYGKWVGELNSLVGIVPKEYLTTAFEVEER [chain 1 W333K]

Variants of: B2
Test: as above
Conditions: with SRMS, HEK293T cells, one experiment, read off a plot

ratio to parent | Variant
1.2 | chain 1 MQAAALPEEIRWLLEDAEEFLAEGLRNENLSAVARDHRDHILRGFQQIKARYYWDFQPQGGDIGQDSSDDNHSGTLGLSLTSDAPFLSDYQDEGMEDIVKGAQELDNVIKQGYLEKKSKDHSFFGSEWQKRWCVVSRGLFYYYANEKSKQPKGTFLIKGYGVRMAPHLRRDSKKESCFELTSQDRRSYEFTATSPAEARDWVDQISFLLKDLSSLTIPYEEDEEEEEKEETYDDIDGFDSPSCGSQCRPTILPGSVGIKEPTEEKEEEDIYEVLPDEEHDLEEDESGTRRKGVDYASYYQGLWDCHGDQPDELSFQRGDLIRILSKEYNMYGKWVGELNSLVGIVPKEYLTTAFEVEER [chain 1 W333K]

Variants of: B3
Test: as above
Conditions: with LYN, HEK293T cells, one experiment, read off a plot

ratio to parent | Variant
1.8 | chain 1 W333K
1.4 | chain 1 D120K
